Reference: patent publication US20170306030A1

Molecular target: EGF receptor (UniProt P00533)
Assay: cell-based or functional assay

IFNα-2a (R149A) - (Gly4Ser)7 - EGF chimeric activator (from UniProt P01563 24-188; P01133 23-1207)
specificity of IFNα signaling, Daudi-EGFR against parental Daudi cells: > 20 fold

IFNα-2a (R144A) - (Gly4Ser)7 - EGF chimeric activator (from UniProt P01563 24-188; P01133 23-1207)
inhibition of proliferation and survival of Daudi-EGFR cells (WST-1), potency against the corresponding IFNα2a mutant alone: 100 fold
